Measurements taken from patent publication US20220340660A1 (Merck Sharp & Dohme, published 2022).

T1: mouse TIGIT on mouse TIGIT-overexpressing CHO cells (mouse, UniProt P86176 29-249)
T1 construct: whole, on cells; also called mTIGIT/CHO; mTIGIT
T1 sequence (looked up): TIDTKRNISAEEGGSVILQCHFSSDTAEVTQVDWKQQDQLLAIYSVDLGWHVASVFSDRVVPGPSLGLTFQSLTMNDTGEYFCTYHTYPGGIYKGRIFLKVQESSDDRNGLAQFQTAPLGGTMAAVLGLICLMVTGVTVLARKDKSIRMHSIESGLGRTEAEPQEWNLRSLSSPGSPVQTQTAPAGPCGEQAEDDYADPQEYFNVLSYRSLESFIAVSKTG

T2: recombinant mouse TIGIT protein (mouse, UniProt P86176 29-148, limits assumed)
T2 construct: also called mTIGIT recombinant protein; mTIGIT
T2 sequence (looked up): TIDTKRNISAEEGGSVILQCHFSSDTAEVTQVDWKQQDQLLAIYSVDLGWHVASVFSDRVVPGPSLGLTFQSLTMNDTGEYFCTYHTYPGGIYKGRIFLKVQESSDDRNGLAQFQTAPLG


Experiments:
[1] = target: T1, mouse TIGIT on mouse …; experiment: cell-based ELISA on mTIGIT/CHO cells, detected by anti-mouse IgG
Method: (§1) FIG. 1A and FIG. 1B are graphs showing identification and characterization of anti-mouse TIGIT monoclonal antibody 18G10. FIG. 1A is a line graph showing binding of anti-mouse TIGIT, clone 18G10, was measured by a cell-based ELISA using mouse TIGIT-overexpressing CHO cells (mTIGIT/CHO). 18G10 was serially diluted as indicated. After 30 min. of incubation, unbound 18G10 antibody was washed out, and the bound 18G10 antibodies were detected using an anti-mouse IgG reagent (closed circles). When the 18G10 was bound in the indicated serial dilutions on mTIGIT/CHO, 8 μg/ml recombinant mouse CD155:hIgG1-Fc (rmCD155) was added to the plate in order to verify whether 18G10 blocked the interaction of rmCD155 with mTIGIT/CHO. After 40 minutes of incubation, unbound recombinant CD155 was washed out, and the bound recombinant CD155 was detected by anti-human IgG reagent (open circles). […] Chimeric anti-TIGIT (18G10):mIgG2a, anti-TIGHT (18G10):mIgG1-[D265A], and isotype controls with mIgG2a or mIgG1-[D265A] isotype were loaded to ELISA plates coated with 1 μg/ml of (left panel) recombinant mouse TIGIT protein or (right panel) goat anti-mouse IgG-Fc antibody. Bound antibodies to each plate were detected. Note: mIgG1* indicates mIgG1-[D265A].

[2] = target: T2, recombinant mouse TIGIT protein; experiment: ELISA, plate coated with 1 µg/ml recombinant mouse TIGIT protein (FIG. 1B)
Method: as §1

binding result [1]	binding result [2]	Binder
binds		anti-mouse TIGIT monoclonal antibody 18G10 (antibody, V domains shown, also called anti-mouse TIGIT, clone 18G10; rat anti-mouse TIGIT (mTIGIT) antibody clone 18G10) VH: QVQLMESGPGLVQPSQTLSLTCTVSGFPLTSYTVHWVRQPPGKGLEWIGAIWSSGSTDYNSALKSRLNINRDSSKSQVFLKMNSLQTEDTAIYFCTKSGWAFFDYWGQGVMVTVSS VL: DIQMTQSPSLLSASVGDRVTLNCIASQNIYKSLAWYQLKLGEAPKLLIYNANSLQAGIPSRFSGSGSGTDFALTISGLQPEDVATYFCQQYSGGYTFGAGTKLELK
	binds	chimeric anti-TIGIT (18G10):mIgG2a (antibody, Rat 18G10 variable domains on an intact mouse IgG2a backbone; also called anti-TIGIT:mIgG2a) heavy: QVQLMESGPGLVQPSQTLSLTCTVSGFPLTSYTVHWVRQPPGKGLEWIGAIWSSGSTDYNSALKSRLNINRDSSKSQVFLKMNSLQTEDTAIYFCTKSGWAFFDYWGQGVMVTVSSAKTTAPSVYPLAPVCGDTTGSSVTLGCLVKGYFPEPVTLTWNSGSLSSGVHTFPAVLQSDLYTLSSSVTVTSSTWPSQSITCNVAHPASSTKVDKKIEPRGPTIKPCPPCKCPAPNLLGGPSVFIFPPKIKDVLMISLSPIVTCVVVDVSEDDPDVQISWFVNNVEVHTAQTQTHREDYNSTLRVVSALPIQHQDWMSGKEFKCKVNNKDLPAPIERTISKPKGSVRAPQVYVLPPPEEEMTKKQVTLTCMVTDFMPEDIYVEWTNNGKTELNYKNTEPVLDSDGSYFMYSKLRVEKKNWVERNSYSCSVVHEGLHNHHTTKSFSRTPGK light: DIQMTQSPSLLSASVGDRVTLNCIASQNIYKSLAWYQLKLGEAPKLLIYNANSLQAGIPSRFSGSGSGTDFALTISGLQPEDVATYFCQQYSGGYTFGAGTKLELKRADAAPTVSIFPPSSEQLTSGGASVVCFLNNFYPKDINVKWKIDGSERQNGVLNSWTDQDSKDSTYSMSSTLTLTKDEYERHNSYTCEATHKTSTSPIVKSFNRNEC
	binds	chimeric anti-TIGIT (18G10):mIgG1-[D265A] (antibody, Rat 18G10 variable domains on a mouse IgG1 backbone with D265A; also called anti-TIGIT:mIgG1*) heavy: QVQLMESGPGLVQPSQTLSLTCTVSGFPLTSYTVHWVRQPPGKGLEWIGAIWSSGSTDYNSALKSRLNINRDSSKSQVFLKMNSLQTEDTAIYFCTKSGWAFFDYWGQGVMVTVSSAKTTPPSVYPLAPGSAAQTNSMVTLGCLVKGYFPEPVTVTWNSGSLSSGVHTFPAVLQSDLYTLSSSVTVPSSTWPSETVTCNVAHPASSTKVDKKIVPRDCGCKPCICTVPEVSSVFIFPPKPKDVLTITLTPKVTCVVVAISKDDPEVQFSWFVDDVEVHTAQTQPREEQFNSTFRSVSELPIMHQDWLNGKEFKCRVNSAAFPAPIEKTISKTKGRPKAPQVYTIPPPKEQMAKDKVSLTCMITDFFPEDITVEWQWNGQPAENYKNTQPIMDTDGSYFVYSKLNVQKSNWEAGNTFTCSVLHEGLHNHHTEKSLSHSPGK light: DIQMTQSPSLLSASVGDRVTLNCIASQNIYKSLAWYQLKLGEAPKLLIYNANSLQAGIPSRFSGSGSGTDFALTISGLQPEDVATYFCQQYSGGYTFGAGTKLELKRADAAPTVSIFPPSSEQLTSGGASVVCFLNNFYPKDINVKWKIDGSERQNGVLNSWTDQDSKDSTYSMSSTLTLTKDEYERHNSYTCEATHKTSTSPIVKSFNRNEC
